Measured values taken from publication PMC11964946.

Molecular target: Vicia altissima seed lectin (VICALTA) (Vicia altissima)
Assay: native gel or EMSA; native PAGE on Mini-PROTEAN TGX 4%-20% precast gels (single band at 87 kDa), compared with SDS-PAGE (single band at 38 kDa); purified seed lectin

stoichiometry N: 2
Substance: Vicia altissima seed lectin (VICALTA) (natural protein)
